From patent publication US11491212

B1: FIXa I251S/R318Y/R338E/E410N (protein)
chain 1: not shown
chain 2: not shown
B2: FIXa Y155F/K247N/N249S/R318Y/R338E/R403E/E410N (protein)
chain 1: not shown
chain 2: not shown
B3: FIXa K247N/N249S/R318Y/R338E/E410N (protein)
chain 1: not shown
chain 2: not shown
B4: FIXa Y155F/K228N/R318Y/R338E/R403E/E410N (protein)
chain 1: not shown
chain 2: not shown
B5: FIXa A103N/N105S/K247N/N249S/R318Y/R338E/R403E/E410N (protein)
chain 1: not shown
chain 2: not shown
B6: FIXa D104N/K106S/K247N/N249S/R318Y/R338E/R403E/E410N (protein)
chain 1: not shown
chain 2: not shown
B7: FIXa D104N/K106S/Y155F/K228N/K247N/N249S (protein)
chain 1: not shown
chain 2: not shown
B8: FIXa Y155F/I251S/R318Y/R338E/R403E/E410N (protein)
chain 1: not shown
chain 2: not shown
B9: FIXa Y259F/K265T/Y345T (protein)
chain 1: not shown
chain 2: not shown
B10: FIXa D85N/K228N/R318Y/R338E/R403E/E410N (protein)
chain 1: not shown
chain 2: not shown
B11: FIXa I251S/R318Y/R338E/R403E/E410N (protein)
chain 1: not shown
chain 2: not shown
B12: FIXa R318Y/R338E/R403E/E410S (protein)
chain 1: not shown
chain 2: not shown
B13: FIXa K247N/N249S/R318Y/R338E/R403E/E410N (protein)
chain 1: not shown
chain 2: not shown
B14: FIXa Y155F/K247N/N249S/R318Y/R338E/E410N (protein)
chain 1: not shown
chain 2: not shown

Each protein was assayed against Factor X (FX), P00742.
Factor X (FX), P00742, sequence (P00742 whole entry, looked up): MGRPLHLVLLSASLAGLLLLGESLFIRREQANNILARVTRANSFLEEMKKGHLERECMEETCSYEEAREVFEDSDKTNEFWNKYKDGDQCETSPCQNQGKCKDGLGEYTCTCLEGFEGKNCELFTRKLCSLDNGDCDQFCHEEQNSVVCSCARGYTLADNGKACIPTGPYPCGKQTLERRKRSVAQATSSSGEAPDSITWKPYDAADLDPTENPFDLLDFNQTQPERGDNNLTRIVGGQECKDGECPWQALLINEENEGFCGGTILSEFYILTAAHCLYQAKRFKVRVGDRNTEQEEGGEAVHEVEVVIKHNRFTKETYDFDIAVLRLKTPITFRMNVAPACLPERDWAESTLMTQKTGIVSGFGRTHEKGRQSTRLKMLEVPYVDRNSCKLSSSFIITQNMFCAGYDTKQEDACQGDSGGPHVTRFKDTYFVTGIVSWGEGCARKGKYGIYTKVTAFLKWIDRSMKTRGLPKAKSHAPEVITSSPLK

In order of falling KM:
1. B7  0.0753 µM
2. B6  0.059 µM
3. B4  0.048 µM
4. B8  0.0433 µM
5. B5  0.0397 µM
6. B10  0.0393 µM
7. B13  0.0392 µM
8. B2  0.0391 µM
9. B12  0.0351 µM
10. B11  0.0334 µM
11. B9  0.0309 µM
12. B3  0.0166 µM
13. B1  0.0162 µM
14. B14  0.0153 µM

In order of rising kcat (Catalytic activity of FIXa variants):
1. B9  1.7 s⁻¹
2. B3  3.8 s⁻¹
3. B5  4.1 s⁻¹
4. B14  4.3 s⁻¹
5. B7  4.7 s⁻¹
6. B11  4.8 s⁻¹
7. B6  5.2 s⁻¹
8. B12  5.8 s⁻¹
9. B13  5.8 s⁻¹
10. B10  6 s⁻¹
11. B1  6.2 s⁻¹
12. B2  6.5 s⁻¹
13. B8  7.2 s⁻¹
14. B4  9.7 s⁻¹

In order of falling kcat/KM:
1. B1  3.8e+08 M⁻¹ s⁻¹
2. B14  3e+08 M⁻¹ s⁻¹
3. B4  2e+08 M⁻¹ s⁻¹
4. B2  1.8e+08 M⁻¹ s⁻¹
5. B12  1.8e+08 M⁻¹ s⁻¹
6. B5  1e+08 M⁻¹ s⁻¹
